Test system: Escherichia coli TOP10
Assay: shrunken log2 fold change of peptide-encoding DNA abundance (4.5 h post-induction vs induction); higher = less antimicrobial activity (less host growth inhibition)
Conditions: time post-induction: 4.5 h; library: site-saturation at positions 5, 18, 19, 20
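Also: peptides expressed intracellularly from a pBAD plasmid library in pooled LB shake-flask culture, induced with 0.3% L-arabinose, DNA abundance read by NGS, three biological replicates, DESeq2 with apeglm shrinkage.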

Row | Sequence | shrunken log2 fold change
1 | RRIRSRPPRLPRPRPRPMMNPRP | -0.0187
2 | RRIRYRPPRLPRPRPRPGEWPRP | 0.0486
3 | RRIRHRPPRLPRPRPRPADMPRP | 0.0208
4 | RRIRCRPPRLPRPRPRPRVQPRP | 0.241
5 | RRIRLRPPRLPRPRPRPMIDPRP | -0.0169
6 | RRIRPRPPRLPRPRPRPHDDPRP | -0.421
7 | RRIRNRPPRLPRPRPRPVFIPRP | -0.459
8 | RRIRMRPPRLPRPRPRPTRLPRP | 1.19
9 | RRIRCRPPRLPRPRPRPPHAPRP | 1.04
10 | RRIRTRPPRLPRPRPRPNPDPRP | -0.0402
11 | RRIRGRPPRLPRPRPRPTSSPRP | 0.425
12 | RRIRGRPPRLPRPRPRPIMCPRP | 0.0901
13 | RRIRNRPPRLPRPRPRPLLAPRP | 0.253
14 | RRIRKRPPRLPRPRPRPYKIPRP | -0.305
15 | RRIRARPPRLPRPRPRPDPGPRP | 0.29
16 | RRIRKRPPRLPRPRPRPTVLPRP | 0.0143
17 | RRIRSRPPRLPRPRPRPGWLPRP | 0.177
18 | RRIRERPPRLPRPRPRPLIIPRP | -1
19 | RRIRIRPPRLPRPRPRPAPGPRP | 0.371
20 | RRIRWRPPRLPRPRPRPMKQPRP | -0.208
21 | RRIRVRPPRLPRPRPRPLFRPRP | -0.134
22 | RRIRIRPPRLPRPRPRPVAVPRP | -0.104
23 | RRIRLRPPRLPRPRPRPHSAPRP | -0.202
24 | RRIRTRPPRLPRPRPRPYEKPRP | -0.657
25 | RRIRGRPPRLPRPRPRPQVNPRP | 0.0954

Row | Sequence | shrunken log2 fold change
26 | RRIRTRPPRLPRPRPRPYCFPRP | -0.301
27 | RRIRARPPRLPRPRPRPIHVPRP | -0.143
28 | RRIRKRPPRLPRPRPRPKVAPRP | 1.23
29 | RRIRCRPPRLPRPRPRPLRGPRP | 0.835
30 | RRIRYRPPRLPRPRPRPSTCPRP | -0.687
31 | RRIRLRPPRLPRPRPRPITQPRP | -0.264
32 | RRIRVRPPRLPRPRPRPYKWPRP | -0.266
33 | RRIRKRPPRLPRPRPRPWKHPRP | -0.339
34 | RRIRVRPPRLPRPRPRPGTIPRP | -0.0277
35 | RRIRYRPPRLPRPRPRPCAMPRP | 0.0865
36 | RRIRHRPPRLPRPRPRPVWFPRP | 0.0927
37 | RRIRDRPPRLPRPRPRPSDFPRP | 0.259
38 | RRIRVRPPRLPRPRPRPHVEPRP | 0.0127
39 | RRIRYRPPRLPRPRPRPNWYPRP | -1.48
40 | RRIRVRPPRLPRPRPRPNPRPRP | 0.21
41 | RRIRQRPPRLPRPRPRPRWVPRP | 0.345
42 | RRIRTRPPRLPRPRPRPKANPRP | -0.00404
43 | RRIRQRPPRLPRPRPRPRSFPRP | -0.0281
44 | RRIRFRPPRLPRPRPRPMQFPRP | -0.0783
45 | RRIRNRPPRLPRPRPRPFFDPRP | -0.0739
46 | RRIRYRPPRLPRPRPRPSLFPRP | -0.657
47 | RRIRTRPPRLPRPRPRPYSYPRP | -0.692
48 | RRIRTRPPRLPRPRPRPLKNPRP | -0.397
49 | RRIRERPPRLPRPRPRPTWVPRP | 0.138
50 | RRIRRRPPRLPRPRPRPNQYPRP | -0.506

Row | Sequence | shrunken log2 fold change
51 | RRIRRRPPRLPRPRPRPMPEPRP | 0.124
52 | RRIRDRPPRLPRPRPRPCCGPRP | 1.13
53 | RRIRIRPPRLPRPRPRPVREPRP | 0.201
54 | RRIRNRPPRLPRPRPRPNQIPRP | -0.319
55 | RRIRDRPPRLPRPRPRPQDSPRP | 0.00388
56 | RRIRKRPPRLPRPRPRPAGFPRP | 0.0388
57 | RRIRLRPPRLPRPRPRPATNPRP | -0.253
58 | RRIRMRPPRLPRPRPRPWDWPRP | 0.794
59 | RRIRGRPPRLPRPRPRPCGPPRP | 1.29
60 | RRIRLRPPRLPRPRPRPCDMPRP | -0.0352
61 | RRIRGRPPRLPRPRPRPGKAPRP | 0.529
62 | RRIRLRPPRLPRPRPRPELNPRP | 0.145
63 | RRIRLRPPRLPRPRPRPMVVPRP | -0.0179
64 | RRIRHRPPRLPRPRPRPPFEPRP | 0.161
65 | RRIRMRPPRLPRPRPRPATYPRP | 0.0281
66 | RRIRERPPRLPRPRPRPNHTPRP | -0.58
67 | RRIRIRPPRLPRPRPRPPKIPRP | -0.106
68 | RRIRCRPPRLPRPRPRPWITPRP | -1.47
69 | RRIRWRPPRLPRPRPRPEHNPRP | 0.147
70 | RRIRSRPPRLPRPRPRPNLCPRP | -0.0929
71 | RRIRGRPPRLPRPRPRPSHWPRP | 0.157
72 | RRIRQRPPRLPRPRPRPIKMPRP | -0.39
73 | RRIRHRPPRLPRPRPRPGVTPRP | 0.00739
74 | RRIRIRPPRLPRPRPRPHREPRP | -0.0487
75 | RRIRGRPPRLPRPRPRPVQCPRP | 0.102
